Measurements reported in patent publication US20240002535A1 (Merck Sharp & Dohme, published 2024).

Tests used:
[1] = target: T1, human arginase 1 (hArg1), trimeric (human, UniProt P05089 1-322); experiment: ITC, hArg1 trimer (100 uM, syringe) titrated into the antibody (10 uM, cell) at 25 C
T1 construct: Natural homotrimer; It carries two Mn ions in each active site; also called Human Arg1 trimer; trimeric hArg1
T1 sequence: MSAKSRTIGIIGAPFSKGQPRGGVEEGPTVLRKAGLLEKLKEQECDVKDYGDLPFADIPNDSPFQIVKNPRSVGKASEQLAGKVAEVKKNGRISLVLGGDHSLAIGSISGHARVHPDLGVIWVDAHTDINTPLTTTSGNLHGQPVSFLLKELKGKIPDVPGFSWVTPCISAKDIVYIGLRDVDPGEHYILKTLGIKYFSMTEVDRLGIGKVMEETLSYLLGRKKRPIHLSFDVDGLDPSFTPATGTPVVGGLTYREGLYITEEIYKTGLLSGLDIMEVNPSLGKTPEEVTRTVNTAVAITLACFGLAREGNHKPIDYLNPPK
Protocol: (§1) Isothermal titration calorimetry (ITC) was conducted using a MicroCal PEAQ-ITC Automated (Malvern Inc, Westborough, MA) to determine the stoichiometry and thermodynamics properties of the hArg1:mAb interaction. […] Arginase (100 μM) in the ITC syringe was titrated into the antibody (10 μM) in the ITC cell at 25° C. Reference power was set to 10 μcal/sec with initial delay of 60 seconds and stirring speed of 750 rpm. Injection volume was 0.4 μL for the first injection and 4 μL for subsequent injections. Injection duration was 0.8 seconds for the first injection and 6 seconds for subsequent injections with 150 sec spacing. Baseline was adjusted using buffer-buffer titration. Data analysis was done using MicroCal PEAQ-ITC Analysis Software.

[2] = target: T1, human arginase 1 (hArg1), trimeric; experiment: isothermal titration calorimetry: hArg1 trimer (100 µM, syringe) titrated into mAb4 mouse/human chimera (10 µM, cell) at 25 °C
Protocol: as §1

stoichiometry n (ITC) [1]: 0.637
-TΔS [2]: 12.6 kJ/mol
ΔG [2]: -44.8 kJ/mol
ΔH [2]: -57.3 kJ/mol
B1: mAb4 (mouse/human chimera) (antibody, V domains shown)
VH: EVQLQQSGPVLVKPGASVKMSCKASEYTFTDYYMNWVKQSHGRSLEWIGVISPYNGGTTYNQKFKGKATLTVDKSSSTAYMELNSLTSEDSAVYYCVYDLYYFDYWGQGTTLTVSS
VL: NIVLTQSPATLSVTPGDSVSLSCRASQRISNDLHWYQQKSHESPRLLIKYASQSISGIPSRFSGSGSGTDFTLSINSVETEDFGMYFCQQSNSWPRTFGGGTKLEIK
